Test results taken from US6723838.

Molecular target: purified H-ras GST fusion protein [GST: P08515]
Sequence (P08515 whole entry, looked up, the tested form may be a part): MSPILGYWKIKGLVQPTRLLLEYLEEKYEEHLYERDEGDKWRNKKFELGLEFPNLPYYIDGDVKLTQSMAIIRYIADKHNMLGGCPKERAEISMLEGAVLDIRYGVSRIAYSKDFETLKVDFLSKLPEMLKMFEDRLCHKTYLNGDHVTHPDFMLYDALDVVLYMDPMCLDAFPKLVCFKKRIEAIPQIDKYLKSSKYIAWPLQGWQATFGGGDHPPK

B1: GST fusion protein of the GAP domain (266-521) of SYNGAP (protein)
chain: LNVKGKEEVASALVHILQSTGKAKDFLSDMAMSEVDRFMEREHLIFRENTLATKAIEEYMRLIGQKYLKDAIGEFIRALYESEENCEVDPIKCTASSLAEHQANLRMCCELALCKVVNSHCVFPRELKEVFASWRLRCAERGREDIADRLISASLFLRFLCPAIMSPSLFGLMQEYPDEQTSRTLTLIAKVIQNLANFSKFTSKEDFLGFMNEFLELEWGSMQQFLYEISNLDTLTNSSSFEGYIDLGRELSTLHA
- GTPase activity of Ras ([gamma-32P]-GTP filter assay): addition of the GST fusion protein of the GAP domain of SYNGAP dramatically stimulated the GTPase activity of Ras
